{"source": "paper PMC8228355", "about": "“SERS-Based Aptasensor for Rapid Quantitative Detection of SARS-CoV-2”", "binders": {"B1": {"name": "Biotin-RBD-1C (structured_DNA)", "DNA": "CAGCACCGACCTTGTGCTTTGGGAGTGCTGGTCCAAGGGCGTTAATGGACA"}, "B2": {"name": "Biotin-RBD-1C-sh (structured_DNA)", "DNA": "TTTGGGAGTGCTGGTCCAAGGGCGTTAATGGACA"}}, "target": "RBD of SARS-CoV-2 spike protein (SARS-CoV-2, UniProt P0DTC2 319-541)", "assay": "BLI; ka ([…]; kd ([…]; RBD 80-1200 nM; […]; BLI on streptavidin sensors, buffer and temperature not stated; […]", "details": "protein: commercial; label: 5'-biotin"}
{"binder": "B1", "values": [{"measurement": "Kd", "result": 13, "unit": "nM"}]}
{"binder": "B2", "values": [{"measurement": "Kd", "result": 330, "unit": "nM"}]}
